According to publication PMC4225554:

Key:
[1] = biological target: RD1-MART1^HIGH single-chain TCR, yeast-displayed (human); test: flow cytometry on cells
[2] = biological target: RD1-MART1 single-chain TCR, yeast-displayed (human); test: flow cytometry on cells

Row | Substance | EC50 [1] [nM] | EC50 [2] [nM]
1 | MART1 ([…])/HLA-A2, refolded biotinylated monomer (from UniProt P61769 21-119) (peptide-MHC) | 52 | > 5000
2 | MART1 ([…])/HLA-A2-Ig dimer (from UniProt P61769 21-119) (peptide-MHC) | – | 130
